Assay results reported in US20210393689A1 (JUNO THERAPEUTICS, published 2021).

Biological target: T1, murine GPRC5D (murine, UniProt Q9JIL6 1-344)
T1 construct: whole, on cells; also called mGPRC5D; mouse GPRC5D
T1 sequence (looked up): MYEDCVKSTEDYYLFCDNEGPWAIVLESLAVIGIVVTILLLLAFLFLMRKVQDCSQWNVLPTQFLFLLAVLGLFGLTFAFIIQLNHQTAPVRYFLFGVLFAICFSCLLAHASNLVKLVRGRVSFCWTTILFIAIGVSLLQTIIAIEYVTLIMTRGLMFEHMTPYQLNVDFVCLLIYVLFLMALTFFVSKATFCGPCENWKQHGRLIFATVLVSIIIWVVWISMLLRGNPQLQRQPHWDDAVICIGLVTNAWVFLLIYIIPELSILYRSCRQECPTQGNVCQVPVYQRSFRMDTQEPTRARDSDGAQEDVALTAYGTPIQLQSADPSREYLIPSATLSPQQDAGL
Experiment: Jurkat Nur77-RFP reporter activation after 1:1 co-culture with K562 cells expressing mGPRC5D (indirect read-out)
Protocol: K562 cells were transduced to express human (hGPRC5D), cGPRC5D or mGPRC5D. The Jurkat Nur77-RFP activation reporter line described above was transduced with polynucleotides constructs encoding CARs described in Example 3. […] Reporter cells were also incubated with parental K562 cells as a negative control.

B1: GPRC5D-203 VL/VH - long (anti-GPRC5D CAR: GPRC5D-203 VL/VH scFv, long spacer, CD28 transmembrane domain, 4-1BB and CD3zeta signaling domains) (other)
chain: SSELTQDPAVSVALGQTVRITCQGDSLRSYYASWYQQKPGQAPVLVIYGKNNRPSGIPDRFSGSSSGNTASLTITGAQAEDEADYYCNSRDSSGNPPVVFGGGTKLTVLGSRGGGGSGGGGSGGGGSLEMAQVQLVESGGGLVHPGGSLRLSCAASGFTFRSHSMNWVRQAPGKGLEWVSSISSDSTYTYYADSVKGRFTISRDNAKNSLYLQMNSLRAEDTAVYYCARSGGQWKYYDYWGQGTLVTVSSESKYGPPCPPCPAPPVAGPSVFLFPPKPKDTLMISRTPEVTCVVVDVSQEDPEVQFNWYVDGVEVHNAKTKPREEQFQSTYRVVSVLTVLHQDWLNGKEYKCKVSNKGLPSSIEKTISKAKGQPREPQVYTLPPSQEEMTKNQVSLTCLVKGFYPSDIAVEWESNGQPENNYKTTPPVLDSDGSFFLYSRLTVDKSRWQEGNVFSCSVMHEALHNHYTQKSLSLSLGKMFWVLVVVGGVLACYSLLVTVAFIIFWVKRGRKKLLYIFKQPFMRPVQTTQEEDGCSCRFPEEEEGGCELRVKFSRSADAPAYQQGQNQLYNELNLGRREEYDVLDKRRGRDPEMGGKPRRKNPQEGLYNELQKDKMAEAYSEIGMKGERRRGKGHDGLYQGLSTATKDTYDALHMQALPPR
notes: Chimeric antigen receptor on the surface of Jurkat Nur77-RFP reporter cells or primary T cells; signal peptide left out; In the reporter constructs a T2A-GFP follows the CAR, so T2A residues may remain at the C-terminus
- binding result: no binding
